Measured values: article PMC9243104 (Nature Communications, 2022)

Assays:
[1] = biological target: the molecule itself; assay: ELISA; 1 µg of 1st protein coated on a 96-well plate (1 h, 25 °C), blocked with 5% milk in PBS; 2nd protein added at increasing concentrations in blocking buffer (1 h, 25 °C); detected with anti-WASp antibody, OD450; RPA coated alone or after pre-incubation with 1 nM ssDNA
[2] = biological target: WASp (WT*WASp) (Homo sapiens, UniProt P42768 1-502); assay: EMSA; WASp alone; EMSA: 1x Promega E358A gel shift binding buffer (composition not given), 25 ul, 10^5 CPM 32P probe, 10 min 4 C then 20 min room temperature, 6% native PAGE; conditions: protein: recombinant; tags: Flag; label: 32P (T4 PNK); single strand
[3] = biological target: RPA1 (RPA70) (Homo sapiens, UniProt P27694 1-616); assay: EMSA; + WASp; binding increased, maximum at equimolar 25 nM WASp; EMSA: 1x Promega E358A gel shift binding buffer (composition not given), 25 ul, 10^5 CPM 32P probe, 10 min 4 C then 20 min room temperature, 6% native PAGE; conditions: protein: commercial; label: 32P (T4 PNK); single strand
[4] = biological target: RPA heterotrimer (RPA1-3) (Homo sapiens, UniProt P27694;P15927;P35244 1-616;1-270;1-121); assay: EMSA; + WASp; binding increased; EMSA: 1x Promega E358A gel shift binding buffer (composition not given), 25 ul, 10^5 CPM 32P probe, 10 min 4 C then 20 min room temperature, 6% native PAGE; conditions: protein: recombinant; copies: 1;1;1; label: 32P (T4 PNK); single strand
[5] = biological target: RPA1-AB (DBD-A/B) (Homo sapiens, UniProt P27694 181-422); assay: as above; conditions: protein: recombinant; label: 32P (T4 PNK); single strand
[6] = biological target: RPA1-FAB (DBD-F/A/B) (Homo sapiens, UniProt P27694 1-422); assay: as above; conditions: protein: recombinant; label: 32P (T4 PNK); single strand
Chain of RPA1-FAB (DBD-F/A/B) (P27694 1-422): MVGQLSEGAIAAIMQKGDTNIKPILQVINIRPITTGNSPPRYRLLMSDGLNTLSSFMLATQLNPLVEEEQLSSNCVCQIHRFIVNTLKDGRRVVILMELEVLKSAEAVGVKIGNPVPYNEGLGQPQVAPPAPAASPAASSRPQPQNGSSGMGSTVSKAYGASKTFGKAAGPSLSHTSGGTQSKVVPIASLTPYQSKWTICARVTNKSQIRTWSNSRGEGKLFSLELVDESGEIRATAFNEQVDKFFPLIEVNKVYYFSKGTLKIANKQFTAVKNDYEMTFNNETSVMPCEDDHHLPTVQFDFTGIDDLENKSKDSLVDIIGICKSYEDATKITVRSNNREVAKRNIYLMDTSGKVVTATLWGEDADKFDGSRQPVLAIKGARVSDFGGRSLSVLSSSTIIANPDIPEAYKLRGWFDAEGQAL

Chain of RPA heterotrimer (RPA1-3) (P27694 whole entry, chain 1 of 3): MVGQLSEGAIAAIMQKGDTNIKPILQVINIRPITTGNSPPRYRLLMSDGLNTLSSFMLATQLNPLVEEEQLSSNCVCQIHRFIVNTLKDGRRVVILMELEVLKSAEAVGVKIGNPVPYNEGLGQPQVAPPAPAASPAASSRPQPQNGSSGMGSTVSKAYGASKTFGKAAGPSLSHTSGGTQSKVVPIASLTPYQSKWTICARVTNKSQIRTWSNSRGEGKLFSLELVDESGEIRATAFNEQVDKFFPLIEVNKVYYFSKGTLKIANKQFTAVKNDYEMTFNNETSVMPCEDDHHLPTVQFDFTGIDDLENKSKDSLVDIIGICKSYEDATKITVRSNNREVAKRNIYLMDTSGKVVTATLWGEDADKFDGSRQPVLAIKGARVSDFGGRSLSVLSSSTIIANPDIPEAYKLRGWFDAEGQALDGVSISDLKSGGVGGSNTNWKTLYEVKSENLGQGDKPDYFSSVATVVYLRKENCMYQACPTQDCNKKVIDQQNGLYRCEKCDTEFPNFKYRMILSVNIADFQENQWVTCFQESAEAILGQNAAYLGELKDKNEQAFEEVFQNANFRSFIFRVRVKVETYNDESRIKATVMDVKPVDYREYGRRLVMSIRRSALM
Chain of RPA heterotrimer (RPA1-3) (P15927 whole entry, chain 2 of 3): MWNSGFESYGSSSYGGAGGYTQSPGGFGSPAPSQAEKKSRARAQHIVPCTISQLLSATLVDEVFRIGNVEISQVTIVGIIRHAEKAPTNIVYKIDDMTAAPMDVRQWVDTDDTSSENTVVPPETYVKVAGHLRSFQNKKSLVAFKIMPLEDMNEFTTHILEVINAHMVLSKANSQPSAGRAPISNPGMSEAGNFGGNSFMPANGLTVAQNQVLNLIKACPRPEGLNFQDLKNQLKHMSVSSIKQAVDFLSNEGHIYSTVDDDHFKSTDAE
Chain of RPA heterotrimer (RPA1-3) (P35244 whole entry, chain 3 of 3): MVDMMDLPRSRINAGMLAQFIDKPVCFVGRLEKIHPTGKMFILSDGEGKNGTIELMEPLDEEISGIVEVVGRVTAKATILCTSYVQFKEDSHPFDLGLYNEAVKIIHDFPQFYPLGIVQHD
Chain of RPA1 (RPA70) (P27694 whole entry): as the sequence (P27694 whole entry, chain 1 of 3) above
Chain of RPA1-AB (DBD-A/B) (P27694 181-422): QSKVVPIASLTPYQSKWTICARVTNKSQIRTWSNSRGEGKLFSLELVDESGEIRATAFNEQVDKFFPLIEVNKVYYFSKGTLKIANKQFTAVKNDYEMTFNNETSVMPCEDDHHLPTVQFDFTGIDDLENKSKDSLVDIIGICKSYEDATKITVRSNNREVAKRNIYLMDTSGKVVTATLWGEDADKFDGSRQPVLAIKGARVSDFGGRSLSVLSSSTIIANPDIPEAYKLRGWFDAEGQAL

Binder | binding result [1] | binding result [2] | also measured
Recombinant human WT*WASp (Wiskott-Aldrich syndrome protein) (natural protein, UniProt P42768 1-502, looked up, human WASp, codon-optimized WAS gene cloned into the NdeI-HindIII site of pET30a; also called wild-type WASp; native purified human WASp; source: E. coli DE3 (pET30a-WT*WASp), purified using Flag-tag; commercially produced by GenScript) MSGGPMGGRPGGRGAPAVQQNIPSTLLQDHENQRLFEMLGRKCLTLATAVVQLYLALPPGAEHWTKEHCGAVCFVKDNPQKSYFIRLYGLQAGRLLWEQELYSQLVYSTPTPFFHTFAGDDCQAGLNFADEDEAQAFRALVQEKIQKRNQRQSGDRRQLPPPPTPANEERRGGLPPLPLHPGGDQGGPPVGPLSLGLATVDIQNPDITSSRYRGLPAPGPSPADKKRSGKKKISKADIGAPSGFKHVSHVGWDPQNGFDVNNLDPDLRSLFSRAGISEAQLTDAETSKLIYDFIEDQGGLEAVRQEMRRQEPLPPPPPPSRGGNQLPRPPIVGGNKGRSGPLPPVPLGIAPPPPTPRGPPPPGRGGPPPPPPPATGRSGPLPPPPPGAGGPPMPPPPPPPPPPPSSGNGPAPPPLPPALVPAGGLAPGGGRGALLDQIRQGIQLNKTPGAPESSALQPPPQSSEGLVGALMHVMQKRSRAIHSSDEGEDQAGDEDEDDEWDD | binds |  | 
Recombinant human ΔRBM1*WASp (WASp mutant lacking the RPA1-binding motif, aa 493-502) (natural protein, UniProt P42768 1-502, looked up, also called RBM1-deleted WASp mutant; source: E. coli DE3 (pET30a-∆RBM1*WASp), purified using Flag-tag; commercially produced by GenScript) MSGGPMGGRPGGRGAPAVQQNIPSTLLQDHENQRLFEMLGRKCLTLATAVVQLYLALPPGAEHWTKEHCGAVCFVKDNPQKSYFIRLYGLQAGRLLWEQELYSQLVYSTPTPFFHTFAGDDCQAGLNFADEDEAQAFRALVQEKIQKRNQRQSGDRRQLPPPPTPANEERRGGLPPLPLHPGGDQGGPPVGPLSLGLATVDIQNPDITSSRYRGLPAPGPSPADKKRSGKKKISKADIGAPSGFKHVSHVGWDPQNGFDVNNLDPDLRSLFSRAGISEAQLTDAETSKLIYDFIEDQGGLEAVRQEMRRQEPLPPPPPPSRGGNQLPRPPIVGGNKGRSGPLPPVPLGIAPPPPTPRGPPPPGRGGPPPPPPPATGRSGPLPPPPPGAGGPPMPPPPPPPPPPPSSGNGPAPPPLPPALVPAGGLAPGGGRGALLDQIRQGIQLNKTPGAPESSALQPPPQSSEGLVGALMHVMQKRSRAIHSSDEGEDQAG | binds |  | 
XO1 ssDNA 61-mer (ssDNA) DNA: GACGCTGCCGAATTCTACCAGTGCCTTGCTAGGACATCTTTGCCCACCTGCAGGTTCACCC |  | no binding | binding result [3]: binds; binding result [4]: binds; binding result [5]: binds; binding result [6]: binds
ssRNA 61-mer (ssRNA) RNA: GACGCUGCCGAAUUCUACCAGUGCCUUGCUAGGACAUCUUUGCCCACCUGCAGGUUCACCC |  | no binding | 
